From the supplement of paper PMC12338614
± gives the uncertainty stated by the source.

B1: library; numbered along this chain (parent)
chain: MEVVDPQQLGMFTEGELMSVGMDTFIHRIDSTEVIYQPRRKRAKLIGKYLMGDLLGEGSYGKVKEVLDSETLCRRAVKILKKKKLRRIPNGEANVKKEIQLLRRLRHKNVIQLVDVLYNEEKQKMYMVMEYCVCGMQEMLDSVPEKRFPVCQAHGYFCQLIDGLEYLHSQGIVHKDIKPGNLLLTTGGTLKISDLGVAEALHPFAADDTCRTSQGSPAFQPPEIANGLDTFSGFKVDIWSAGVTLYNITTGLYPFEGDNIYKLFENIGKGSYAIPGDCGPPLSDLLKGMLEYEPAKRFSIRQIRQHSWFRKKHPPAEAPVPIPPSPDTKDRWRSMTVVPYLEDLHGADEDEDLFDIEDDIIYTQDFTVPGQVPEEEASHNGQRRGLPKAVCMNGTEAAQLSTKSRAEGRAPNPARKACSASSKIRRLSACKQQ

Variants of: B1
Experiment: STK11 functional score (HeLa growth suppression), rescaled enrichment; synonymous median = 1, nonsense median = 0 (normalised score)
Conditions: with HeLa; variant type: missense
Protocol: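 Deep mutational scan (TileSeq/POPCode codon randomisation) of full-length codon-optimised STK11 cDNA integrated at a Bxb1 landing pad (AAVS1) in HeLa cells. Restoring functional STK11 suppresses HeLa proliferation. Variant frequencies were measured by NGS before and after about two weeks of growth. The error-corrected enrichment log-ratio was rescaled so that synonymous median = 1 and nonsense median = 0, scores above 1 were compressed, and codon-level and three biological replicate scores were combined; error is the bootstrapped standard error. Scale: synonymous median = 1, nonsense median = 0; below 0.5 = damaging.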
Work on H313V yielded an STK11 functional score of 0.495 ± 0.12. Work on L183Y yielded an STK11 functional score of 1.57 ± 0.1. L117N was tested, and the STK11 functional score was 1.44 ± 0.56. A206D was tested, and the STK11 functional score was 1.07 ± 0.12. A206V gave an STK11 functional score of 0.497 ± 0.082. Work on Y166L yielded an STK11 functional score of 0.75 ± 0.13. With Y166C the STK11 functional score was 0.804 ± 0.08. I172G showed an STK11 functional score of 0.806 ± 0.26. Variant I172N has an STK11 functional score of 0.174 ± 0.13. For I172F, the STK11 functional score was 0.904 ± 0.34. Variant L164C has an STK11 functional score of 1.21 ± 0.15. R40V showed an STK11 functional score of 1.64 ± 0.25. Work on P222Q yielded an STK11 functional score of 0.712 ± 0.2. P222H showed an STK11 functional score of 0.314 ± 0.11. With P222W the STK11 functional score was 0.686 ± 0.36. In the case of T185L, the STK11 functional score is reported as 1.08 ± 0.32. D355V showed an STK11 functional score of 1.14 ± 0.18. T250R showed an STK11 functional score of 0.727 ± 0.25. T250K showed an STK11 functional score of 0.0557 ± 0.22. S299E gave an STK11 functional score of 1.56 ± 0.15. G163W showed an STK11 functional score of 0.91 ± 0.22. G163P gave an STK11 functional score of -0.013 ± 0.11. V320P gave an STK11 functional score of 1.56 ± 0.33. Work on T13A yielded an STK11 functional score of 1.5 ± 0.23. T13P showed an STK11 functional score of 1.58 ± 0.38. With L263C the STK11 functional score was 1.11 ± 0.25. L263D was tested, and the STK11 functional score was 0.549 ± 0.14. In the case of P179M, the STK11 functional score is reported as 0.544 ± 0.13. Work on A273W yielded an STK11 functional score of 1.65 ± 0.18. With A273H the STK11 functional score was 0.901 ± 0.3. For F264A, the STK11 functional score was 1.16 ± 0.36. With A417H the STK11 functional score was 0.849 ± 0.67. N259T gave an STK11 functional score of 1.32 ± 0.51. For M392G, the STK11 functional score was 1.43 ± 0.22. M392C showed an STK11 functional score of 1.34 ± 0.31. K62W was tested, and the STK11 functional score was 1.38 ± 0.43. With K62R the STK11 functional score was 1.61 ± 0.36. Work on T230P yielded an STK11 functional score of 1.1 ± 0.17. D208G showed an STK11 functional score of 1.37 ± 0.23. G180F was tested, and the STK11 functional score was 0.804 ± 0.068. With L286W the STK11 functional score was 1.16 ± 0.093. L286N was tested, and the STK11 functional score was 0.195 ± 0.1. For K287Q, the STK11 functional score was 1.19 ± 0.51. K287G gave an STK11 functional score of 1.28 ± 0.16. Work on L353R yielded an STK11 functional score of 1.57 ± 0.17. In the case of R415F, the STK11 functional score is reported as 0.952 ± 0.52. Q305I gave an STK11 functional score of 1.53 ± 0.14. Variant I161T has an STK11 functional score of 1.31 ± 0.66. Variant S271L has an STK11 functional score of 1.39 ± 0.29. Variant S271Y has an STK11 functional score of -0.251 ± 0.55. S240N was tested, and the STK11 functional score was 1.11 ± 0.44. N266L showed an STK11 functional score of 0.675 ± 0.16. Variant E265R has an STK11 functional score of 1.41 ± 0.3. Variant E265L has an STK11 functional score of 1.18 ± 0.42. For E265C, the STK11 functional score was 1.67 ± 0.28. Variant T363V has an STK11 functional score of 1.2 ± 0.16. T363A gave an STK11 functional score of 0.828 ± 0.21. Q220W was tested, and the STK11 functional score was 1.46 ± 0.12. With Q220R the STK11 functional score was 0.808 ± 0.13. P144M showed an STK11 functional score of 1.17 ± 0.64. Variant Q7E has an STK11 functional score of 1.27 ± 0.34. For T249E, the STK11 functional score was -0.289 ± 0.13. T249A was tested, and the STK11 functional score was 0.412 ± 0.66. H379F was tested, and the STK11 functional score was 1.1 ± 0.23. With H379E the STK11 functional score was 0.586 ± 0.27. With N109P the STK11 functional score was -0.121 ± 0.086. Variant K178A has an STK11 functional score of 0.756 ± 0.67. Variant T24S has an STK11 functional score of 1.15 ± 0.41. T24H gave an STK11 functional score of 1.7 ± 0.17. In the case of G10M, the STK11 functional score is reported as 1.51 ± 0.42. For G10A, the STK11 functional score was 1.38 ± 0.17. In the case of Q371C, the STK11 functional score is reported as 1.36 ± 0.37. With I29Y the STK11 functional score was 1.12 ± 0.28. P294I was tested, and the STK11 functional score was 0.351 ± 0.081. For P294D, the STK11 functional score was 0.708 ± 0.1. With L160R the STK11 functional score was -0.13 ± 0.095. Work on L160S yielded an STK11 functional score of 0.508 ± 0.1. L160V showed an STK11 functional score of 1.26 ± 0.14. With S193T the STK11 functional score was 1.22 ± 0.22. Work on A377T yielded an STK11 functional score of 1.59 ± 0.28. L400V gave an STK11 functional score of 1.41 ± 0.26. Variant L55H has an STK11 functional score of 1.43 ± 0.47. Variant L55P has an STK11 functional score of 1.23 ± 0.39. Variant Q170F has an STK11 functional score of 0.834 ± 0.45. K82L gave an STK11 functional score of 1.49 ± 0.16. With G251Y the STK11 functional score was 0.258 ± 0.24. V128S showed an STK11 functional score of 0.466 ± 0.12. V128A gave an STK11 functional score of 0.438 ± 0.1. Variant V20C has an STK11 functional score of 0.242 ± 0.13. In the case of D284F, the STK11 functional score is reported as 0.579 ± 0.099. D284A showed an STK11 functional score of 0.668 ± 0.26. For G242L, the STK11 functional score was -0.0195 ± 0.092. Variant L72G has an STK11 functional score of 1.44 ± 0.23. With D53P the STK11 functional score was 1.52 ± 0.36. In the case of D53Y, the STK11 functional score is reported as 1.38 ± 0.1. For S325P, the STK11 functional score was 1.51 ± 0.16. In the case of M18V, the STK11 functional score is reported as 0.413 ± 0.24. Variant V110E has an STK11 functional score of -0.206 ± 0.081. V110G gave an STK11 functional score of 0.297 ± 0.079. S401R gave an STK11 functional score of 1.11 ± 0.38. For S401I, the STK11 functional score was 1.49 ± 0.15. S401N was tested, and the STK11 functional score was 1.4 ± 0.14. For T209H, the STK11 functional score was 1.34 ± 0.18. T209I showed an STK11 functional score of 0.703 ± 0.26. With P324H the STK11 functional score was 1.48 ± 0.15. N181E gave an STK11 functional score of -0.231 ± 0.13. Variant I322C has an STK11 functional score of 1.17 ± 0.32. Work on G279H yielded an STK11 functional score of 1.6 ± 0.31. G279M gave an STK11 functional score of 0.984 ± 0.61. Variant K41F has an STK11 functional score of 1.14 ± 0.082. Work on K41S yielded an STK11 functional score of 1.46 ± 0.16. Variant T367G has an STK11 functional score of 1.6 ± 0.14. T367A was tested, and the STK11 functional score was 1.39 ± 0.11. In the case of T367E, the STK11 functional score is reported as 1.5 ± 0.15. Work on T367S yielded an STK11 functional score of 1.51 ± 0.24. Y246W gave an STK11 functional score of 1.15 ± 0.092. Y246D was tested, and the STK11 functional score was -0.149 ± 0.14. In the case of C210L, the STK11 functional score is reported as 0.435 ± 0.12. For C210W, the STK11 functional score was 0.601 ± 0.2. For D359H, the STK11 functional score was 1.21 ± 0.39. For K122A, the STK11 functional score was 1.18 ± 0.53. In the case of K122R, the STK11 functional score is reported as 1.69 ± 0.38. For K122C, the STK11 functional score was 1.46 ± 0.36. Work on M289E yielded an STK11 functional score of -0.103 ± 0.1. K97N gave an STK11 functional score of 1.21 ± 0.42. In the case of G61H, the STK11 functional score is reported as 1.41 ± 0.35. In the case of T336E, the STK11 functional score is reported as 1.61 ± 0.15. T336H showed an STK11 functional score of 1.59 ± 0.14. P373M showed an STK11 functional score of 1.56 ± 0.17. Variant P373V has an STK11 functional score of 0.868 ± 0.14. For E145M, the STK11 functional score was 1.3 ± 0.13. L50M was tested, and the STK11 functional score was 0.814 ± 0.23. L50I was tested, and the STK11 functional score was 1.62 ± 0.099. In the case of L344A, the STK11 functional score is reported as 1.51 ± 0.15. With I88Q the STK11 functional score was -0.36 ± 0.084. I88W showed an STK11 functional score of 0.401 ± 0.49. For K296N, the STK11 functional score was 1.12 ± 0.44. In the case of V3A, the STK11 functional score is reported as 1.46 ± 0.16. In the case of V3W, the STK11 functional score is reported as 0.953 ± 0.5. Variant K403D has an STK11 functional score of 1.53 ± 0.2. In the case of R304K, the STK11 functional score is reported as 1.31 ± 0.65. In the case of E376F, the STK11 functional score is reported as 1.35 ± 0.37. S19V showed an STK11 functional score of 0.694 ± 0.18. R425H showed an STK11 functional score of 1.56 ± 0.17. E223H was tested, and the STK11 functional score was 1.18 ± 0.17. Work on R74H yielded an STK11 functional score of 1.6 ± 0.47. I238M gave an STK11 functional score of 0.843 ± 0.17. For I238R, the STK11 functional score was -0.17 ± 0.18. R211C showed an STK11 functional score of 1.25 ± 0.43. For R87G, the STK11 functional score was 1.11 ± 0.083. Work on T189I yielded an STK11 functional score of 1.33 ± 0.82. In the case of L102F, the STK11 functional score is reported as 1.11 ± 0.17. F204R was tested, and the STK11 functional score was 0.931 ± 0.16. L201T was tested, and the STK11 functional score was 1.2 ± 0.26. For L201R, the STK11 functional score was 0.929 ± 0.2. Q214C showed an STK11 functional score of 0.896 ± 0.11. In the case of Q214A, the STK11 functional score is reported as 1.18 ± 0.19. With L184S the STK11 functional score was 0.61 ± 0.13. V236S showed an STK11 functional score of 1.4 ± 0.37. V236A showed an STK11 functional score of 1.56 ± 0.4. For H202S, the STK11 functional score was 1.17 ± 0.25. Work on K64Y yielded an STK11 functional score of 1.39 ± 0.39. Variant K64R has an STK11 functional score of 1.4 ± 0.17. For M139N, the STK11 functional score was 0.949 ± 0.081. D141W was tested, and the STK11 functional score was 0.69 ± 0.12. E92W was tested, and the STK11 functional score was 1.03 ± 0.61. Variant E120S has an STK11 functional score of 1.42 ± 0.18.
